doi:10.1101/2020.12.08.415968 (bioRxiv, 2020)

Molecular target: T1, SiRHP (sulfite reductase hemoprotein, full length, hydrogenated) (Escherichia coli, UniProt P17846 1-570)
T1 sequence (looked up): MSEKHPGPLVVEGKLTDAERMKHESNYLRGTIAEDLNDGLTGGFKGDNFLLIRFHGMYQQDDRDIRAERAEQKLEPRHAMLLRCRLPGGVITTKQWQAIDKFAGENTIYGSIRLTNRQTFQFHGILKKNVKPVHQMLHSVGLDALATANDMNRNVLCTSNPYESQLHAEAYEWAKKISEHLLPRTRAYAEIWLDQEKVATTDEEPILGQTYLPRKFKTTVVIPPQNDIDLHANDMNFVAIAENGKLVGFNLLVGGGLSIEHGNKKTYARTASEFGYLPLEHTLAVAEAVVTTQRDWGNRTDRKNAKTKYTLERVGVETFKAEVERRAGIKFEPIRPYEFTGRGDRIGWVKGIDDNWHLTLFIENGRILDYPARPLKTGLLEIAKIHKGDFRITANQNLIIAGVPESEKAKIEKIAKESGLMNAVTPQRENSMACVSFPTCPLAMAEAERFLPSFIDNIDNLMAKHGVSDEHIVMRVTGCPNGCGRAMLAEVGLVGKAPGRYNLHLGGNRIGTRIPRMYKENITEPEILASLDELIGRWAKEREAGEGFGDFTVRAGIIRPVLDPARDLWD
Assay: AUC

binding result: binds
B1: SiRFP-60 (monomeric 60 kDa sulfite reductase flavoprotein, 52 N-terminal amino acids removed) (domain or fragment, Escherichia coli, UniProt P38038 53-599, looked up)
chain: ATPAPAAEMPGITIISASQTGNARRVAEALRDDLLAAKLNVKLVNAGDYKFKQIASEKLLIVVTSTQGEGEPPEEAVALHKFLFSKKAPKLENTAFAVFSLGDSSYEFFCQSGKDFDSKLAELGGERLLDRVDADVEYQAAASEWRARVVDALKSRAPVAAPSQSVATGAVNEIHTSPYSKDAPLVASLSVNQKITGRNSEKDVRHIEIDLGDSGMRYQPGDALGVWYQNDPALVKELVELLWLKGDEPVTVEGKTLPLNEALQWHFELTVNTANIVENYATLTRSETLLPLVGDKAKLQHYAATTPIVDMVRFSPAQLDAEALINLLRPLTPRLYSIASSQAEVENEVHVTVGVVRYDVEGRARAGGASSFLADRVEEEGEVRVFIEHNDNFRLPANPETPVIMIGPGTGIAPFRAFMQQRAADEAPGKNWLFFGNPHFTEDFLYQVEWQRYVKDGVLTRIDLAWSRDQKEKVYVQDKLREQGAELWRWINDGAHIYVCGDANRMAKDVEQALLEVIAEFGGMDTEAADEFLSELRVERRYQRDVY
